The Kd is a measure of binding affinity in units of concentration. A lower Kd goes with a tighter complex. Broadly, the koff is the rate constant with which the complex falls apart. A high value points to fast dissociation. What is called kon is the second-order rate constant of association. Low readings indicate slower complex formation, high ones faster complex formation.

For assay [1], the target named is T1, ORF0657n-H/y (SEQ ID NO: 3) (S. aureus, UniProt A6QG30 42-609).
T1 construct: also called Yeast expressed ORF0657n-H/y antigen
T1 sequence (A6QG30 42-609, tags left off): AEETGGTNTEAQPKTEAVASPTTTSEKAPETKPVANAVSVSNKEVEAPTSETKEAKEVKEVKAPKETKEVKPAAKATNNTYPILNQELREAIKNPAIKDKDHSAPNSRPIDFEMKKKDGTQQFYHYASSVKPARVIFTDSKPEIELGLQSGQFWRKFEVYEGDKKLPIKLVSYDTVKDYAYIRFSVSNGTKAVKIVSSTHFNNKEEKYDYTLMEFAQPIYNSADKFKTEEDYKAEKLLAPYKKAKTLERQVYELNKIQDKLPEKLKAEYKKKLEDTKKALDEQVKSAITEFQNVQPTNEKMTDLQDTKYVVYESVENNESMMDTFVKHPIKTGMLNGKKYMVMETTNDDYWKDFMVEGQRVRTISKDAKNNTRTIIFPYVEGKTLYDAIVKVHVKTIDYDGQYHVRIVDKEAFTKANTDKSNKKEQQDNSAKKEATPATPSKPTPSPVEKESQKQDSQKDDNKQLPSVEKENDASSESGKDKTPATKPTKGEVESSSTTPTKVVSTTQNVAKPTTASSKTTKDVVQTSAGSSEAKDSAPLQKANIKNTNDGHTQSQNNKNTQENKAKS
As to the kind of experiment: Western blot (dot blot confirmed by Western). Background: A western blot detects proteins with antibodies after separation by electrophoresis.

Assay [2] has as its target T2, ORF0657t CNBr fragment [303-446] (Band 15 kDa) (S. aureus, UniProt A5IS15 343-486).
T2 construct: also called 15 kDa band
As to the kind of experiment: Western blot of CNBr cleavage products of ORF0657t with 2H2 mAb (Band 15 kDa).

Assay [3] has as its target T3, ORF0657t CNBr fragment [215-356] (Band 15 kDa) (S. aureus, UniProt A5IS15 255-396).
T3 construct: also called 15 kDa band
The description is as above.

In assay [4] the target is T4, ORF0657t (ORF0657n fragment from amino acid 42 to amino acid 486 of SEQ ID NO: 1) (S. aureus, UniProt A5IS15 42-486).
T4 construct: also called ORFO657t
As to the kind of experiment: SPR Biacore 3000, IgG captured as ligand, ORF0657t as analyte. Background: Surface plasmon resonance follows binding to a sensor surface in real time, without labels.

For assay [5], the target named is T5, ORF0657t CNBr fragment [114-214] (Band 10 kDa) (S. aureus, UniProt A5IS15 154-254).
T5 construct: also called 10 kDa band
T5 sequence: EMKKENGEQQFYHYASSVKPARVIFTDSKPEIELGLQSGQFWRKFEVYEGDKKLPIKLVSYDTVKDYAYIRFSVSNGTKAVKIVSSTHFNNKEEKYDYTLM
As to the kind of experiment: Western blot of CNBr cleavage products of ORF0657t with 2H2 mAb (Band 10 kDa).

For assay [6], the target named is T6, ORF0657t CNBr fragment [357-446] (Band 10 kDa) (S. aureus, UniProt A5IS15 397-486).
T6 construct: also called 10 kDa band
T6 sequence (A5IS15 397-486): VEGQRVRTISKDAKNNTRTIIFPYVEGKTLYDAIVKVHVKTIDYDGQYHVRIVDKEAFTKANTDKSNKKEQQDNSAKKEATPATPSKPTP
Described as above.

Assay [7] deals with T7, ORF0657t CNBr fragment [215-302] (Band 10 kDa) (S. aureus, UniProt A5IS15 255-342).
T7 construct: also called 10 kDa band
T7 sequence: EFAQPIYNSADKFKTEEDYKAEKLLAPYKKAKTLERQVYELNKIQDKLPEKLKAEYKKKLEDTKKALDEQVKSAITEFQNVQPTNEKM
The description is as above.

Assay [8] addresses T8, ORF0657t CNBr fragment [001-323] (Band 35 kDa) (S. aureus, UniProt A5IS15 42-363).
T8 construct: also called 35 kDa band
T8 sequence: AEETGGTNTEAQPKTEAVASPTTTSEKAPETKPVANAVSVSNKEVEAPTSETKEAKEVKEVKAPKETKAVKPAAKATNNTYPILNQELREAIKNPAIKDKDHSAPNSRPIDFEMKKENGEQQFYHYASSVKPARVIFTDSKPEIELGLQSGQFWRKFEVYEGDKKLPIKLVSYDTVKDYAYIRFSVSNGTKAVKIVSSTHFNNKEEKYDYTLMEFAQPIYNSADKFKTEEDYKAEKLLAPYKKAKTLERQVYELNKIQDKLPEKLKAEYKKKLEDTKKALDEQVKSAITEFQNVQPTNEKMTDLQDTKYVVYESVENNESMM
As to the kind of experiment: Western blot of CNBr cleavage products of ORF0657t with 2H2 mAb.

The target in assay [9] is T9, ORF0657t CNBr fragment [116-302] (Band 25 kDa) (S. aureus, UniProt A5IS15 156-342).
T9 construct: also called 25 kDa band
T9 sequence: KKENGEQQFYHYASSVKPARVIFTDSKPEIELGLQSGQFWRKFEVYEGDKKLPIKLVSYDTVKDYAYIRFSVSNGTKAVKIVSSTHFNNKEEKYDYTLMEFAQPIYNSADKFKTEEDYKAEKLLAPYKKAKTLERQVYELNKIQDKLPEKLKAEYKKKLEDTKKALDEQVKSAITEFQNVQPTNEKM
Briefly: Western blot of CNBr cleavage products of ORF0657t with 2H2 mAb (Band 25 kDa).

Assay [10] addresses T10, ORF0657t CNBr fragment [001-214] (Band 25 kDa) (S. aureus, UniProt A5IS15 42-254).
T10 construct: also called 25 kDa band
T10 sequence: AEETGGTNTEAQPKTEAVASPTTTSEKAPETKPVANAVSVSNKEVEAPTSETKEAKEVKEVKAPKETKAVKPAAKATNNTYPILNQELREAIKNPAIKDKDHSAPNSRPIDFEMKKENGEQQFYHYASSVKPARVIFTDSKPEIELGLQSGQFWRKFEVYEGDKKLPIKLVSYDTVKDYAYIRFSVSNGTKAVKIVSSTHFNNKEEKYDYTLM
The description is as above.

Assay [11] concerns the target T4, ORF0657t (ORF0657n fragment from amino …). As to the kind of experiment: SPR Biacore 3000, ORF0657t bound to the surface, antibody fragment as analyte.

T2 sequence (A5IS15 343-486): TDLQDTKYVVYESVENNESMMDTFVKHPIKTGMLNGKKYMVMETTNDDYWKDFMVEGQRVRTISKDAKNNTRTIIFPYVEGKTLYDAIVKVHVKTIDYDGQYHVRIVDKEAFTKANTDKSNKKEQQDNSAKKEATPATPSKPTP

B1: mAb 2H2.B8 (antibody, V domains shown)
VH: DVHLVESGPGLVAPSQNLSITCTVSGFSLSRYGVHWVRQPPGKGLEWLGLIWAGGVTIYNSTLMSRLSISKDSSKSQVFLKMNSLQIDDTAIYYCAREASRDHYFDYWGQGTTLTVSS
VL: DIVMTQSPAIMSASPGEKITMTCSASSSVSYIYWYQQKSGTSPKRWIYDTSKLASGVPFRFSGGGSGTSFSLTISSMEAEDAATYYCQQWSSNPLTFGAGTKLEIKR
notes: also called 2H2.B8 (IgG1)
In the case of B1, the binding result in assay [1] is “binds”.

B2: mAb 2H2.BE11 (antibody, V domains shown)
VH: DVHLVESGPGLVAPSQNLSITCTVSGFSLSRYGVHWVRQPPGKGLEWLGLIWAGGVTIYNSTLMSRLSISKDSSKSQVFLKMNSLQIDDTAIYYCAREASRDHYFDYWGQGTTLTVSS
VL: DIVMTQSPAIMSASPGEKITMTCSASSSVSYIYWYQQKSGTSPKRWIYDTSKLASGVPFRFSGGGSGTSFSLTISSMEAEDAATYYCQQWSSNPLTFGAGTKLEIKR
notes: also called 2H2.BE11 (IgG2b); 2H2 mAb
With B2, the binding result in [2], in assay [3], in assay [5], in [6], in assay [7] and in assay [8] was “no binding” throughout. The binding result in assay [9] and in assay [10] was “no binding” each time. The molecule further showed a Kd in assay [4] of 33 nM. Besides, in assay [4], the koff was 0.00201 s⁻¹. The kon in [4] amounted to 61000 M⁻¹ s⁻¹.

B3: 2H2 IgG chimera (antibody, V domains shown)
VH: DVHLVESGPGLVAPSQNLSITCTVSGFSLSRYGVHWVRQPPGKGLEWLGLIWAGGVTIYNSTLMSRLSISKDSSKSQVFLKMNSLQIDDTAIYYCAREASRDHYFDYWGQGTTLTVSS
VL: DIVMTQSPAIMSASPGEKITMTCSASSSVSYIYWYQQKSGTSPKRWIYDTSKLASGVPFRFSGGGSGTSFSLTISSMEAEDAATYYCQQWSSNPLTFGAGTKLEIKR
notes: also called chimeric antibody; Mouse 2H2 Variable and Human IgG1 / Human Kappa Constant Region
In assay [4], B3 returned a Kd of 25 nM, a koff of 0.00273 s⁻¹ and a kon of 110000 M⁻¹ s⁻¹.

B4: 2H2 scAb (scFv)
scFv: DIVMTQSPAIMSASPGEKITMTCSASSSVSYIYWYQQKSGTSPKRWIYDTSKLASGVPFRFSGGGSGTSFSLTISSMEAEDAATYYCQQWSSNPLTFGAGTKLEIKRGGGGSGGGGSGGGGSGGGGSDVHLVESGPGLVAPSQNLSITCTVSGFSLSRYGVHWVRQPPGKGLEWLGLIWAGGVTIYNSTLMSRLSISKDSSKSQVFLKMNSLQIDDTAIYYCAREASRDHYFDYWGQGTTLTVSSRTVAAPSVFIFPPSDEQLKSGTASVVCLLNNFYPREAKVQWKVDNALQSGNSQESVTEQDSKDSTYSLSSTLTLSKADYEKHKVYACEVTHQGLSSPVTKSFNRGEC
notes: domain: human kappa light chain constant domain; also called 2H2 clone; scFv with a Human Kappa chain tag
In assay [11], B4 came in with a Kd of 39 nM, a koff of 0.00191 s⁻¹ and a kon of 49100 M⁻¹ s⁻¹.

For the origin of these results see patent US20110091480A1 (published 2011).
